B1: Fab fragment of RV-Gn1 (Fab, V domains shown)
VH: TGSLEESGGRLVTPGTPLTLTCTVSGIDPNSDHMSWVRQAPGKGLEWIAIIYASGTTYYASWAKGRFTISKTSTTVDLRIASPTTEDTATYFCATYPNYPTDNLWGQGTLVTVSG
VL: TGMTQTPSPVSAAVGGTVTINCQASQSVYNNYLLSWYQQKPGQPPKRLIYSASTLASGVSSRFKGSGSGTQFTLTISDVQCDDAATYYCLGSYDGNSADCLAFGGGTEVVVK
notes: also called RV-Gn1 Fab; Fab RV-Gn1
B2: RV-Gn1 (full-length rabbit IgG) (antibody, V domains shown)
VH: QSLEESGGRLVTPGTPLTLTCTVSGIDPNSDHMSWVRQAPGKGLEWIAIIYASGTTYYASWAKGRFTISKTSTTVDLRIASPTTEDTATYFCATYPNYPTDNLWGQGTLVTVSS
VL: B1 VL
notes: also called RVFV-Gn1; source: rabbit hybridoma supernatant, purified (Protein G)

How the values were obtained:
[1] = target: RVFV Gn (crystallization construct) (Rift Valley fever virus, UniProt P21401); assay: SEC; details: both partners purified
Sequence of RVFV Gn (crystallization construct) (P21401 168-483): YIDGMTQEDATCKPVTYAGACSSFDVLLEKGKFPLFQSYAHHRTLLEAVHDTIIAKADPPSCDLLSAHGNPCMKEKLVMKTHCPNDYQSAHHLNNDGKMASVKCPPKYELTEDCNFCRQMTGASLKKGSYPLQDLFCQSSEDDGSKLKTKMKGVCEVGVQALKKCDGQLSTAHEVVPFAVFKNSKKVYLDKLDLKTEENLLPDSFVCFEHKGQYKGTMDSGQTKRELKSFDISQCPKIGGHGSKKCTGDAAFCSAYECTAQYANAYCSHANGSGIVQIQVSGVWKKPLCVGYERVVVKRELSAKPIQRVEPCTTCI

[2] = target: SFTSV Gn glycoprotein (residues 20-341) (Severe fever with thrombocytopenia …, UniProt R4V2Q5); assay: ELISA; details: both partners purified
Sequence of SFTSV Gn glycoprotein (residues 20-341) (R4V2Q5 whole entry, looked up, the tested form may be a part): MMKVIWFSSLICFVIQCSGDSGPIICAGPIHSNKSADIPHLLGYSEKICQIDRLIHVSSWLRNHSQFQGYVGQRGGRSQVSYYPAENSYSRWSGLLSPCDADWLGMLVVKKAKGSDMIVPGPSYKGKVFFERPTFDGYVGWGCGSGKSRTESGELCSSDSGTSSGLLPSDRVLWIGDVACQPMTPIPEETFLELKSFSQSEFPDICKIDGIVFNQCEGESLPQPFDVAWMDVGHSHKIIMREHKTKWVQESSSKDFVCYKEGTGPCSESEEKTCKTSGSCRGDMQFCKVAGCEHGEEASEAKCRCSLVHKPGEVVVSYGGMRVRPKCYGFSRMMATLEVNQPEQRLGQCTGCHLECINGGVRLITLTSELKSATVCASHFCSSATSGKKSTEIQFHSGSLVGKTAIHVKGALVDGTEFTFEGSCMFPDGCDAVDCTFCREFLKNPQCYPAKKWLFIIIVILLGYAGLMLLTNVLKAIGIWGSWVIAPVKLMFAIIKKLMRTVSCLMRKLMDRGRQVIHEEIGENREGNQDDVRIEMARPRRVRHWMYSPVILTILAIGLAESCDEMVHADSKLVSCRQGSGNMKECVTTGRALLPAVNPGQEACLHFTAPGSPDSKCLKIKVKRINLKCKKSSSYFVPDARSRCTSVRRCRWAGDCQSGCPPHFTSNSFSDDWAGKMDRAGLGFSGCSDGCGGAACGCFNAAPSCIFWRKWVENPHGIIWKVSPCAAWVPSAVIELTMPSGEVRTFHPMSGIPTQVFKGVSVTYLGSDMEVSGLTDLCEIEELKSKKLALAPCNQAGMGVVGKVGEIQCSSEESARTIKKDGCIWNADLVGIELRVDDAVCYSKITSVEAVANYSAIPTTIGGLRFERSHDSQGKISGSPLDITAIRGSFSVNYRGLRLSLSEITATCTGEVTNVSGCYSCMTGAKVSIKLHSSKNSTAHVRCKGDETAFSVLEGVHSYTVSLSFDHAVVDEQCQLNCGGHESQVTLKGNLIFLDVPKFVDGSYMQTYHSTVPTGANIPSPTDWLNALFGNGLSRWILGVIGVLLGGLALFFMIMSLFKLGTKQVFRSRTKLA

Row | Binder | stoichiometry N [1] | binding result [2]
1 | B1 | 1 | –
2 | B2 | – | no binding (tested: 10μg/ml)
